Measurements as given in US20260209348A1 (University of California, published 2026).

B1: h6E6-045 (antibody, V domains shown)
VH: EVQLVESGGGLVKPGGSLRLSCAASGFTFSGYGMSWVRQAPGKGLEWVSTISSGGGYTHYVQSVKGRFTISRDNAKNSLYLQMNSLRAEDTAVYYCARHPRDFSYAMDYWGQGTTVTVSS
VL: EIVMTQSPATLSVSPGERATLSCKASQDVGHYVAWYQQKPGQAPRLLIYWASTRATGIPARFSGSGSGTEFTLTISSLQSEDFAVYYCQQYNIYPWTFGQGTKVEIK
notes: also called clone 45
B2: h6E6-062 (antibody, V domains shown)
VH: EVQLVESGGGLVKPGGSLRLSCAASGFTFSSYGHSWVRQAPGKGLEWVSTISSGGGYTYYAESVKGRFTISRDNAKNSLYLQMNSLRAEDTAVYYCARHPRDFSYAHDYWGQGTTVTVSS
VL: EIVMTQSPATLSVSPGERATLSCKASQDVGHYLAWYQQKPGQAPRLLIYWASTRATGIPARFSGSGSGTEFTLTISSLQSEDFAVYYCQQYNIYPWTFGQGTKVEIK
notes: also called clone 62
B3: h6E6-078 (antibody, V domains shown)
VH: EVQLVESGGGLVKPGGSLRLSCAASGFTFSAYGSSWVRQAPGKGLEWVSTISSGGGYTHYAPSVKGRFTISRDNAKNSLYLQMNSLRAEDTAVYYCARHPRDFSYAMDYWGQGTTVTVSS
VL: EIVMTQSPATLSVSPGERATLSCKASQDVGHYVAWYQQKPGQAPRLLIYWASTRATGIPARFSGSGSGTEFTLTISSLQSEDFAVYYCQQYNIYPWTFGQGTKVEIK
notes: also called clone 78
B4: h6E6-046 (antibody, V domains shown)
VH: EVQLVESGGGLVKPGGSLRLSCAASGFTFSRYGISWVRQAPGKGLEWVSTISSGGGYTHYATSVKGRFTISRDNAKNSLYLQMNSLRAEDTAVYYCARHPRDFSYAMDYWGQGTTVTVSS
VL: EIVMTQSPATLSVSPGERATLSCKASQDVGHYVAWYQQKPGQAPRLLIYWASTRHTGIPARFSGSGSGTEFTLTISSLQSEDFAVYYCQQYNIYPWTFGQGTKVEIK
notes: also called clone 46
B5: h6E6-076 (antibody, V domains shown)
VH: EVQLVESGGGLVKPGGSLRLSCAASGFTFSGYGMSWVRQAPGKGLEWVSTISSGGGYTHYVESVKGRFTISRDNAKNSLYLQMNSLRAEDTAVYYCARHPRDFSYALDYWGQGTTVTVSS
VL: EIVMTQSPATLSVSPGERATLSCKASQDVGHYLAWYQQKPGQAPRLLIYWASTRATGIPARFSGSGSGTEFTLTISSLQSEDFAVYYCQQYNIYPWTFGQGTKVEIK
notes: also called clone 76
B6: h6E6-069 (antibody, V domains shown)
VH: EVQLVESGGGLVKPGGSLRLSCAASGFTFSKYGVSWVRQAPGKGLEWVSTISSGGGYTHYVESVKGRFTISRDNAKNSLYLQMNSLRAEDTAVYYCARHPRDFSYAMDYWGQGTTVTVSS
VL: EIVMTQSPATLSVSPGERATLSCKASQDVGHYLAWYQQKPGQAPRLLIYWASTRATGIPARFSGSGSGTEFTLTISSLQSEDFAVYYCQQYNIYPWTFGQGTKVEIK
notes: also called clone 69
B7: h6E6-047 (antibody, V domains shown)
VH: EVQLVESGGGLVKPGGSLRLSCAASGFTFSKYGMSWVRQAPGKGPEWVSTISSGGGYTHYATSVKGRFTISRDNAKNSLYLQMNSLRAEDTAVYYCARHPRDFSYALDYWGQGTTVTVSS
VL: EIVMTQSPATLSVSPGERATLSCRASQDVGHYVAWYQQKPGQAPRLLIYWASTRATGIPARFSGSGSGTEFTLTISSLQSEDFAVYYCQQYNIYPWTFGQGTKVEIK
notes: also called clone 47
B8: h6E6-081 (antibody, V domains shown)
VH: EVQLVESGGGLVKPGGSLRLSCAASGFTFSSYGMNWVRQAPGKGLEWVSTISSGGGYTHYADSVKGRFTISRDNAKNSLYLQMNSLRAEDTAVYYCARHPRDFSYAQDYWGQGTTVTVSS
VL: EIVMTQSPATLSVSPGERATLSCRASQDVGHYVAWYQQKPGQAPRLLIYWASTRHTGIPARFSGSGSGTEFTLTISSLQSEDFAVYYCQQYNIYPWTFGQGTKVEIK
notes: also called clone 81
B9: h6E6-054 (antibody, V domains shown)
VH: EVQLVESGGGLVKPGGSLRLSCAASGFTFSNYGVSWVRQAPGKGLEWVSTISSGGGYTHYVTSVKGRFTISRDNAKNSLYLQMNSLRAEDTAVYYCARHPRDFSYALDYWGQGTTVTVSS
VL: EIVMTQSPATLSVSPGERATLSCKASQDVGHYVAWYQQKPGQAPRLLIYWASTRATGIPARFSGSGSGTEFTLTISSLQSEDFAVYYCQQYNIYPWTFGQGTKVEIK
notes: also called clone 54
B10: h6E6-064 (antibody, V domains shown)
VH: EVQLVESGGGLVKPGGSLRLSCAASGFTFSHYGISWVRQAPGKGLEWVSSISSGGGYTHYAESVKGRFTISRDNAKNSLYLQMNSLRAEDTAVYYCARHPRDFSYAMDYWGQGTTVTVSS
VL: EIVMTQSPATLSVSPGERATLSCRASQDVGHYVAWYQQKPGQAPRLLIYWASTRATGIPARFSGSGSGTEFTLTISSLQSEDFAVYYCQQYNIYPWTFGQGTKVEIK
notes: also called clone 64
B11: h6E6-050 (antibody, V domains shown)
VH: EVQLVESGGGLVKPGGSLRLSCAASGFTFSRYGMSWVRQAPGKGLEWVSTISSGGGYTHYVDSVKGRFTISRDNAKNSLYLQMNSLRAEDTAVYYCARHPRDFSYAHDYWGQGTTVTVSS
VL: EIVMTQSPATLSVSPGERATLSCKASQDVGHYLAWYQQKPGQAPRLLIYWASTRATGIPARFSGSGSGTEFTLTISSLQSEDFAVYYCQQYNIYPWTFGQGTKVEIK
notes: also called clone 50
B12: h6E6-051 (antibody, V domains shown)
VH: EVQLVESGGGLVKPGGSLRLSCAASGFTFSNYGMSWVRQAPGKGLEWVSTISSGGGYTHYVDSVKGRFTISRDNAKNSLYLQMNSLRAEDTAVYYCARHPRDFSYALDYWGQGTTVTVSS
VL: EIVMTQSPATLSVSPGERATLSCKASQDVGHYVAWYQQKPGQAPRLLIYWASTRATGIPARFSGSGSGTEFTLTISSLQSEDFAVYYCQQYNIYPWTFGQGTKVEIK
notes: also called clone 51
B13: h6E6-049 (antibody, V domains shown)
VH: EVQLVESGGGLVKPGGSLRLSCAASGFTFSNYGMSWVRQAPGKGLEWVSSISSGGGYTHYAESVKGRFTISRDNAKNSLYLQMNSLRAEDTAVYYCARHPRDFSYAMDYWGQGTTVTVSS
VL: EIVMTQSPATLSVSPGERATLSCKASQDVGHYVAWYQQKPGQAPRLLIYWASTRATGIPARFSGSGSGTEFTLTISSLQSEDFAVYYCQQYNIYPWTFGQGTKVEIK
notes: also called clone 49
B14: h6E6-071 (antibody, V domains shown)
VH: EVQLVESGGGLVKPGGSLRLSCAASGFTFSHYGMSWVRQAPGKGLEWVSTISSGGGYTHYAESVKGRFTISRDNAKNSLYLQMNSLRAEDTAVYYCARHPRDFSYAFDYWGQGTTVTVSS
VL: EIVMTQSPATLSVSPGERATLSCKASQDVGHYLAWYQQKPGQAPRLLIYWASTRHTGIPARFSGSGSGTEFTLTISSLQSEDFAVYYCQQYNIYPWTFGQGTKVEIK
notes: also called clone 71
B15: h6E6-082 (antibody, V domains shown)
VH: EVQLVESGGGLVKPGGSLRLSCAASGFTFSKYGMSWVRQAPGKGLEWVSTISSGGGYTHYADSVKGRFTISRDNAKNSLYLQMNSLRAEDTAVYYCARHPRDFSYAMDYWGQGTTVTVSS
VL: EIVMTQSPATLSVSPGERATLSCKASQDVGHYLAWYQQKPGQAPRLLIYWASTRHTGIPARFSGSGSGTEFTLTISSLQSEDFAVYYCQQYNIYPWTFGQGTKVEIK
notes: also called clone 82
B16: h6E6-052 (antibody, V domains shown)
VH: EVQLVESGGGLVKPGGSLRLSCAASGFTFSHYGTSWVRQAPGKGLEWVSTISSGGGYTHYAESVKGRFTISRDNAKNSLYLQMNSLRAEDTAVYYCARHPRDFSYAIDYWGQGTTVTVSS
VL: EIVMTQSPATLSVSPGERATLSCKASQDVGHYLAWYQQKPGQAPRLLIYWASTRATGIPARFSGSGSGTEFTLTISSLQSEDFAVYYCQQYNIYPWTFGQGTKVEIK
notes: also called clone 52

These binders were tested against human ROR2 (human, UniProt Q01974 34-403, limits assumed) (assay: SPR).
How it was run: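 Humanized monoclonal antibodies against human ROR2, made by transferring murine complementarity-determining regions into human acceptor frameworks with the constant region switched to human IgG1, were assessed by surface plasmon resonance. Their affinity for human ROR2 is expressed as the dissociation constant (Kd) in nM.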

human ROR2, sequence (Q01974 34-403 limits assumed): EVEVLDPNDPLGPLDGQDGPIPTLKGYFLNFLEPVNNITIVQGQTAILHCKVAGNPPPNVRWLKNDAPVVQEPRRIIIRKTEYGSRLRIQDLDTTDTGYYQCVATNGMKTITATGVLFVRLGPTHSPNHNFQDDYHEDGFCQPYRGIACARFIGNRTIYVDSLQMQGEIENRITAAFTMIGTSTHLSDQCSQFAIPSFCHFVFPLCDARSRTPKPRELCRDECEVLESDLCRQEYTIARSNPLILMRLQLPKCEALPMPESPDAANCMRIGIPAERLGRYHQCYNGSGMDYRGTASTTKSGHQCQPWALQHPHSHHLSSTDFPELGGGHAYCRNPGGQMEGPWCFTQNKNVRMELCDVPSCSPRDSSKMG

In order of falling Kd:
1. B10  5.8 nM
2. B13  1.4 nM
3. B2  0.839 nM
4. B15  0.812 nM
5. B14  0.582 nM
6. B16  0.533 nM
7. B4  0.527 nM
8. B11  0.482 nM
9. B3  0.476 nM
10. B6  0.407 nM
11. B5  0.203 nM
12. B9  0.178 nM
13. B12  0.16 nM
14. B1  0.134 nM
15. B7  0.086 nM
16. B8  0.062 nM
